Bridge positions count the residues as written; N and C are the ends. Ends that are not written are not given here. COCH2 = acetyl group that carries the bridge
target: T1, Recombinant Human FGFR2 alpha (IIIc) Fc Chimera Protein, CF (R&D systems, 712-FR-050) (human, UniProt P21802 22-377); assay: ELISA on plate-bound FGFR2-Fc
T1 construct: bought; not shown: Fc part of the chimera
Summary of the method: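 Peptide binding scored by category from dose-response of background-corrected luminescence (FGFR-coated minus uncoated wells). Detection via anti-Myc antibody (2 h, room temperature) after 3 h peptide incubation on wells coated with 5 ng FGFR2 alpha (IIIc)-Fc.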

T1 sequence (P21802 22-377, change not shown): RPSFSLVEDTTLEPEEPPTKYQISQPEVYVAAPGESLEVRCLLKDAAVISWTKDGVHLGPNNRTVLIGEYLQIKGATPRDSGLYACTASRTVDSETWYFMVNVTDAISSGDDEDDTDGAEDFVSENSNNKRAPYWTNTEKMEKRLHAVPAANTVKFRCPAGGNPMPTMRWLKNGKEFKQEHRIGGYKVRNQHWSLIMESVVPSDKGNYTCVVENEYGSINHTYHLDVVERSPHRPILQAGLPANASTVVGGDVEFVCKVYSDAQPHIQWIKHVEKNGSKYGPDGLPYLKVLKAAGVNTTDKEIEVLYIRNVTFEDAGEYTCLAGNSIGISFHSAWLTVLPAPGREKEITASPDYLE

Binder	ELISA luminescence signal at 10 nmol/L peptide, relative to SEQ ID NO: 47 (=1) [ratio]
YCEENYLDPEQYQYFNYFK(COCH2)Y (thioether 2-19 (inferred)) [cyclic peptide SEQ ID NO: 283]	≥ 0.7
YCEENYLDPEQYQYFQYFK(COCH2)Y (thioether 2-19 (inferred)) [cyclic peptide SEQ ID NO: 284]	≥ 0.7
YCEENYLDPEQYQYFSYFK(COCH2)Y (thioether 2-19 (inferred)) [cyclic peptide SEQ ID NO: 285]	≥ 0.7
YCEENYLDPEQYQYFTYFK(COCH2)Y (thioether 2-19 (inferred)) [cyclic peptide SEQ ID NO: 286]	≥ 0.7
YCEENYLDPEQYQYFDYFK(COCH2)Y (thioether 2-19 (inferred)) [cyclic peptide SEQ ID NO: 287]	≥ 0.7
YCEENYLDPEQYQYFEYFK(COCH2)Y (thioether 2-19 (inferred)) [cyclic peptide SEQ ID NO: 288]	≥ 0.7
YCEENYLDPEQYQYFRYFK(COCH2)Y (thioether 2-19 (inferred)) [cyclic peptide SEQ ID NO: 289]	≥ 0.7
YCEENYLDPEQYQYFHYFK(COCH2)Y (thioether 2-19 (inferred)) [cyclic peptide SEQ ID NO: 290]	≥ 0.7
YCEENYLDPEQYQYFIGFK(COCH2)Y (thioether 2-19 (inferred)) [cyclic peptide SEQ ID NO: 291]	0.5 to 0.7
YCEENYLDPEQYQYFIPFK(COCH2)Y (thioether 2-19 (inferred)) [cyclic peptide SEQ ID NO: 292]	0.1 to 0.5
YCEENYLDPEQYQYFILFK(COCH2)Y (thioether 2-19 (inferred)) [cyclic peptide SEQ ID NO: 293]	≥ 0.7
YCEENYLDPEQYQYFIIFK(COCH2)Y (thioether 2-19 (inferred)) [cyclic peptide SEQ ID NO: 294]	0.5 to 0.7
YCEENYLDPEQYQYFIVFK(COCH2)Y (thioether 2-19 (inferred)) [cyclic peptide SEQ ID NO: 295]	≥ 0.7
YCEENYLDPEQYQYFIFFK(COCH2)Y (thioether 2-19 (inferred)) [cyclic peptide SEQ ID NO: 296]	≥ 0.7
YCEENYLDPEQYQYFIWFK(COCH2)Y (thioether 2-19 (inferred)) [cyclic peptide SEQ ID NO: 297]	≥ 0.7
YCEENYLDPEQYQYFINFK(COCH2)Y (thioether 2-19 (inferred)) [cyclic peptide SEQ ID NO: 298]	≥ 0.7
YCEENYLDPEQYQYFIQFK(COCH2)Y (thioether 2-19 (inferred)) [cyclic peptide SEQ ID NO: 299]	≥ 0.7
YCEENYLDPEQYQYFISFK(COCH2)Y (thioether 2-19 (inferred)) [cyclic peptide SEQ ID NO: 300]	≥ 0.7
YCEENYLDPEQYQYFITFK(COCH2)Y (thioether 2-19 (inferred)) [cyclic peptide SEQ ID NO: 301]	≥ 0.7
YCEENYLDPEQYQYFIDFK(COCH2)Y (thioether 2-19 (inferred)) [cyclic peptide SEQ ID NO: 302]	≥ 0.7
YCEENYLDPEQYQYFIEFK(COCH2)Y (thioether 2-19 (inferred)) [cyclic peptide SEQ ID NO: 303]	≥ 0.7
YCEENYLDPEQYQYFIRFK(COCH2)Y (thioether 2-19 (inferred)) [cyclic peptide SEQ ID NO: 304]	≥ 0.7

Binder	ELISA luminescence signal at 10 nmol/L peptide, relative to SEQ ID NO: 47 (=1) [ratio]
YCEENYLDPEQYQYFIHFK(COCH2)Y (thioether 2-19 (inferred)) [cyclic peptide SEQ ID NO: 305]	≥ 0.7
YCEENYLDPEQYQYFIYYK(COCH2)Y (thioether 2-19 (inferred)) [cyclic peptide SEQ ID NO: 306]	≥ 0.7
YCEENYLDPEQYQYFIYWK(COCH2)Y (thioether 2-19 (inferred)) [cyclic peptide SEQ ID NO: 307]	≥ 0.7
YCEENYLDPEQYQYFIYFK(COCH2)G (thioether 2-19 (inferred)) [cyclic peptide SEQ ID NO: 308]	≥ 0.7
YCEENYLDPEQYQYFIYFK(COCH2)L (thioether 2-19 (inferred)) [cyclic peptide SEQ ID NO: 309]	≥ 0.7
YCEENYLDPEQYQYFIYFK(COCH2)I (thioether 2-19 (inferred)) [cyclic peptide SEQ ID NO: 310]	≥ 0.7
YCEENYLDPEQYQYFIYFK(COCH2)V (thioether 2-19 (inferred)) [cyclic peptide SEQ ID NO: 311]	≥ 0.7
YCEENYLDPEQYQYFIYFK(COCH2)F (thioether 2-19 (inferred)) [cyclic peptide SEQ ID NO: 312]	≥ 0.7
YCEENYLDPEQYQYFIYFK(COCH2)W (thioether 2-19 (inferred)) [cyclic peptide SEQ ID NO: 313]	≥ 0.7
YCEENYLDPEQYQYFIYFK(COCH2)N (thioether 2-19 (inferred)) [cyclic peptide SEQ ID NO: 314]	≥ 0.7
YCEENYLDPEQYQYFIYFK(COCH2)Q (thioether 2-19 (inferred)) [cyclic peptide SEQ ID NO: 315]	≥ 0.7
YCEENYLDPEQYQYFIYFK(COCH2)S (thioether 2-19 (inferred)) [cyclic peptide SEQ ID NO: 316]	≥ 0.7
YCEENYLDPEQYQYFIYFK(COCH2)T (thioether 2-19 (inferred)) [cyclic peptide SEQ ID NO: 317]	≥ 0.7
YCEENYLDPEQYQYFIYFK(COCH2)D (thioether 2-19 (inferred)) [cyclic peptide SEQ ID NO: 318]	≥ 0.7
YCEENYLDPEQYQYFIYFK(COCH2)E (thioether 2-19 (inferred)) [cyclic peptide SEQ ID NO: 319]	≥ 0.7
YCEENYLDPEQYQYFIYFK(COCH2)R (thioether 2-19 (inferred)) [cyclic peptide SEQ ID NO: 320]	≥ 0.7
YCEENYLDPEQYQYFIYFK(COCH2)H (thioether 2-19 (inferred)) [cyclic peptide SEQ ID NO: 321]	≥ 0.7
ACEENYLDPEQYQYFIYFK(COCH2)Y (thioether 2-19 (inferred)) [cyclic peptide SEQ ID NO: 322]	≥ 0.7
YCAENYLDPEQYQYFIYFK(COCH2)Y (thioether 2-19 (inferred)) [cyclic peptide SEQ ID NO: 323]	≥ 0.7
YCEANYLDPEQYQYFIYFK(COCH2)Y (thioether 2-19 (inferred)) [cyclic peptide SEQ ID NO: 324]	≥ 0.7
YCEEAYLDPEQYQYFIYFK(COCH2)Y (thioether 2-19 (inferred)) [cyclic peptide SEQ ID NO: 325]	0.1 to 0.5
YCEENALDPEQYQYFIYFK(COCH2)Y (thioether 2-19 (inferred)) [cyclic peptide SEQ ID NO: 326]	0.1 to 0.5

Reference: patent US20260008815A1, “CYCLIC PEPTIDE OR SALT THEREOF, AND USES THEREOF” (FUJIFILM Corporation, priority 2023, published 2026)
